How the values were obtained:
[1] = molecular target: T1, insulin B chain peptide on HLA-DQA1*05:01 / HLA-DQB1*03:02 (human); experiment: activation reporter or marker
T1 peptide: SHLVEALYLVCGERG

[2] = molecular target: T2, transketolase (TKT) from Clostridium leptum, TKT peptide 8 peptide on HLA-DQA1*05:01 / HLA-DQB1*03:02 (human); experiment: activation reporter or marker
T2 peptide: GHSVEALYCILADRG

B1: GSE.166H9 (TCR)
alpha TRAV3 TRAJ21 CDR3: CAVMYNFNKFYF
beta TRBV12-3 TRBJ2-5 CDR3: CASSLGGRETQYF
B1: recognises [1]; recognises [2].
